In publication PMC2963697:

B1: HpDmpI (Helicobacter pylori 26695) (protein)
chain: PFINIKLVPENGGPTNEQKQQLIEGVSDLMVKVLNKNKASIVVIIDEVDSNNYGLGGESVHHLRQKN
B2: AfDmpI (Archaeoglobus fulgidus DSM 4304) (protein)
chain: PVLIVYGPKLDVGKKREFVERLTSVAAEIYGMDRSAITILIHEPPAENVGVGGKLIADRERE

Columns and labels:
[1] = substrate: C=CC=C(O)C(=O)O; test: UV spectrophotometric tautomerase assay, steady state; type: biochemical, Helicobacter pylori; conditions: reaction 3 -> 6, 20 mM sodium phosphate, pH 7.3, 23 °C
[2] = substrate: C=CC=C(O)C(=O)O; test: as above; type: biochemical, Archaeoglobus fulgidus; conditions: reaction 3 -> 6, 20 mM sodium phosphate, pH 7.3, 23 °C

Protein	Km [1]	kcat [1]	kcat/Km [1]	Km [2]	kcat [2]	kcat/Km [2]
B1	190 ± 40 µM	2.5 ± 0.3 s⁻¹	13000 M⁻¹ s⁻¹			
B2				90 ± 30 µM	0.1 ± 0.02 s⁻¹	1100 M⁻¹ s⁻¹
